Test results published in patent US20240279278A1, “NMU RECEPTOR 2 AGONISTS” (Boehringer Ingelheim International GmbH, priority 2023, published 2024).

T1: human neuromedin U receptor 1 (human, UniProt Q9HB89 24-426)
T1 sequence (looked up): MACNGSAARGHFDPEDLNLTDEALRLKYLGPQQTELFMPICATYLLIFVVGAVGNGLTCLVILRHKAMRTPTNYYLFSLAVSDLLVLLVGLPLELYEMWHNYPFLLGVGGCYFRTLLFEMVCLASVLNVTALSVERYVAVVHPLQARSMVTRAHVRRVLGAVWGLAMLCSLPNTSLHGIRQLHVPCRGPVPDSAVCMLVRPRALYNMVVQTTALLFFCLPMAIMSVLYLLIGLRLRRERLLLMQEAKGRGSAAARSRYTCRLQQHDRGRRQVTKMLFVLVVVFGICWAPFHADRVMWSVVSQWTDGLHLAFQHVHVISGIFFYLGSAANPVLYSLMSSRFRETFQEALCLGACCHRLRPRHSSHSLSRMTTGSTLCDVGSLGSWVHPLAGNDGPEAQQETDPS


Target: T1, human neuromedin U receptor 1
Assay: cell-based or functional assay

Binder	EC50 (hNMUR1) buffer
EEEXXXXXXXXXXXXXYFLXRPRG (HELM PEPTIDE1{[O=C(O)CCCCCCCCCCCCCCCCC(=O)[*:2]].[gGlu].[gGlu].[gGlu].[Sar].[Sar].[Sar].[Sar].[Sar].[Sar].[Sar].[Sar].[Sar].[Sar].[Sar].[Sar].[O=C(CN1CCN(CCN[*:1])CC1)[*:2]].Y.F.[meL].[Nle].R.P.R.G.[am]}$$$$V2.0; SMILES CCCC[C@H](NC(=O)[C@H](CC(C)C)N(C)C(=O)[C@H](Cc1ccccc1)NC(=O)[C@H](Cc1ccc(O)cc1)NC(=O)CN1CCN(CCNC(=O)CN(C)C(=O)CN(C)C(=O)CN(C)C(=O)CN(C)C(=O)CN(C)C(=O)CN(C)C(=O)CN(C)C(=O)CN(C)C(=O)CN(C)C(=O)CN(C)C(=O)CN(C)C(=O)CN(C)C(=O)CC[C@H](NC(=O)CC[C@H](NC(=O)CC[C@H](NC(=O)CCCCCCCCCCCCCCCCC(=O)O)C(=O)O)C(=O)O)C(=O)O)CC1)C(=O)N[C@@H](CCCNC(=N)N)C(=O)N1CCC[C@H]1C(=O)N[C@@H](CCCNC(=N)N)C(=O)NCC(N)=O) [C18DA-gGlu3-Sar12-AEPipAc-Tyr-Phe-NMeLeu-Nle-Arg-Pro-Arg-Gly-NH2]	200 nM
EEEXXXXXXXXXXYFLXXARG (HELM PEPTIDE1{[O=C(O)CCCCCCCCCCCCCCCCC(=O)[*:2]].[gGlu].[gGlu].[gGlu].[Sar].[Sar].[Sar].[Sar].[Sar].[Sar].[Sar].[Sar].[Sar].[O=C(CN1CCN(CCN[*:1])CC1)[*:2]].Y.F.[meL].[Nle].[Dab].[meA].R.G.[am]}$$$$V2.0; SMILES CCCC[C@H](NC(=O)[C@H](CC(C)C)N(C)C(=O)[C@H](Cc1ccccc1)NC(=O)[C@H](Cc1ccc(O)cc1)NC(=O)CN1CCN(CCNC(=O)CN(C)C(=O)CN(C)C(=O)CN(C)C(=O)CN(C)C(=O)CN(C)C(=O)CN(C)C(=O)CN(C)C(=O)CN(C)C(=O)CN(C)C(=O)CC[C@H](NC(=O)CC[C@H](NC(=O)CC[C@H](NC(=O)CCCCCCCCCCCCCCCCC(=O)O)C(=O)O)C(=O)O)C(=O)O)CC1)C(=O)N[C@@H](CCN)C(=O)N(C)[C@@H](C)C(=O)N[C@@H](CCCNC(=N)N)C(=O)NCC(N)=O) [C18DA-gGlu3-Sar9-AEPipAc-Tyr-Phe-NMeLeu-Nle-Dbu-NMeAla-Arg-Gly-NH2]	> 1000 nM
EEEXXXXXXXXXXYFLXXPRG (HELM PEPTIDE1{[O=C(O)CCCCCCCCCCCCCCCCC(=O)[*:2]].[gGlu].[gGlu].[gGlu].[Sar].[Sar].[Sar].[Sar].[Sar].[Sar].[Sar].[Sar].[Sar].[O=C(CN1CCN(CCN[*:1])CC1)[*:2]].Y.F.[meL].[Nle].[Orn].P.R.G.[am]}$$$$V2.0; SMILES CCCC[C@H](NC(=O)[C@H](CC(C)C)N(C)C(=O)[C@H](Cc1ccccc1)NC(=O)[C@H](Cc1ccc(O)cc1)NC(=O)CN1CCN(CCNC(=O)CN(C)C(=O)CN(C)C(=O)CN(C)C(=O)CN(C)C(=O)CN(C)C(=O)CN(C)C(=O)CN(C)C(=O)CN(C)C(=O)CN(C)C(=O)CC[C@H](NC(=O)CC[C@H](NC(=O)CC[C@H](NC(=O)CCCCCCCCCCCCCCCCC(=O)O)C(=O)O)C(=O)O)C(=O)O)CC1)C(=O)N[C@@H](CCCN)C(=O)N1CCC[C@H]1C(=O)N[C@@H](CCCNC(=N)N)C(=O)NCC(N)=O) [C18DA-gGlu3-Sar9-AEPipAc-Tyr-Phe-NMeLeu-Nle-Orn-Pro-Arg-Gly-NH2]	770 nM
EEEXXXXXXXXXXYFLXXPRG (HELM PEPTIDE1{[O=C(O)CCCCCCCCCCCCCCCCC(=O)[*:2]].[gGlu].[gGlu].[gGlu].[Sar].[Sar].[Sar].[Sar].[Sar].[Sar].[Sar].[Sar].[Sar].[O=C(CN1CCN(CCN[*:1])CC1)[*:2]].Y.F.[meL].[Nle].[Dab].P.R.G.[am]}$$$$V2.0; SMILES CCCC[C@H](NC(=O)[C@H](CC(C)C)N(C)C(=O)[C@H](Cc1ccccc1)NC(=O)[C@H](Cc1ccc(O)cc1)NC(=O)CN1CCN(CCNC(=O)CN(C)C(=O)CN(C)C(=O)CN(C)C(=O)CN(C)C(=O)CN(C)C(=O)CN(C)C(=O)CN(C)C(=O)CN(C)C(=O)CN(C)C(=O)CC[C@H](NC(=O)CC[C@H](NC(=O)CC[C@H](NC(=O)CCCCCCCCCCCCCCCCC(=O)O)C(=O)O)C(=O)O)C(=O)O)CC1)C(=O)N[C@@H](CCN)C(=O)N1CCC[C@H]1C(=O)N[C@@H](CCCNC(=N)N)C(=O)NCC(N)=O) [C18DA-gGlu3-Sar9-AEPipAc-Tyr-Phe-NMeLeu-Nle-Dbu-Pro-Arg-Gly-NH2]	1000 nM
EEEXXXXXXXXXXXXXYFLXXPRG (HELM PEPTIDE1{[O=C(O)CCCCCCCCCCCCCCCCC(=O)[*:2]].[gGlu].[gGlu].[gGlu].[Sar].[Sar].[Sar].[Sar].[Sar].[Sar].[Sar].[Sar].[Sar].[Sar].[Sar].[Sar].[O=C(CN1CCN(CCN[*:1])CC1)[*:2]].Y.F.[meL].[Nle].[Dab].P.R.G.[am]}$$$$V2.0; SMILES CCCC[C@H](NC(=O)[C@H](CC(C)C)N(C)C(=O)[C@H](Cc1ccccc1)NC(=O)[C@H](Cc1ccc(O)cc1)NC(=O)CN1CCN(CCNC(=O)CN(C)C(=O)CN(C)C(=O)CN(C)C(=O)CN(C)C(=O)CN(C)C(=O)CN(C)C(=O)CN(C)C(=O)CN(C)C(=O)CN(C)C(=O)CN(C)C(=O)CN(C)C(=O)CN(C)C(=O)CC[C@H](NC(=O)CC[C@H](NC(=O)CC[C@H](NC(=O)CCCCCCCCCCCCCCCCC(=O)O)C(=O)O)C(=O)O)C(=O)O)CC1)C(=O)N[C@@H](CCN)C(=O)N1CCC[C@H]1C(=O)N[C@@H](CCCNC(=N)N)C(=O)NCC(N)=O) [C18DA-gGlu3-Sar12-AEPipAc-Tyr-Phe-NMeLeu-Nle-Dbu-Pro-Arg-Gly-NH2]	1700 nM
EEEXXXXXXXXXXXXXXXXYFLXXARG (HELM PEPTIDE1{[O=C(O)CCCCCCCCCCCCCCCCC(=O)[*:2]].[gGlu].[gGlu].[gGlu].[Sar].[Sar].[Sar].[Sar].[Sar].[Sar].[Sar].[Sar].[Sar].[Sar].[Sar].[Sar].[Sar].[Sar].[Sar].[O=C(CN1CCN(CCN[*:1])CC1)[*:2]].Y.F.[meL].[Nle].[Dab].[meA].R.G.[am]}$$$$V2.0; SMILES CCCC[C@H](NC(=O)[C@H](CC(C)C)N(C)C(=O)[C@H](Cc1ccccc1)NC(=O)[C@H](Cc1ccc(O)cc1)NC(=O)CN1CCN(CCNC(=O)CN(C)C(=O)CN(C)C(=O)CN(C)C(=O)CN(C)C(=O)CN(C)C(=O)CN(C)C(=O)CN(C)C(=O)CN(C)C(=O)CN(C)C(=O)CN(C)C(=O)CN(C)C(=O)CN(C)C(=O)CN(C)C(=O)CN(C)C(=O)CN(C)C(=O)CC[C@H](NC(=O)CC[C@H](NC(=O)CC[C@H](NC(=O)CCCCCCCCCCCCCCCCC(=O)O)C(=O)O)C(=O)O)C(=O)O)CC1)C(=O)N[C@@H](CCN)C(=O)N(C)[C@@H](C)C(=O)N[C@@H](CCCNC(=N)N)C(=O)NCC(N)=O) [C18DA-gGlu3-Sar15-AEPipAc-Tyr-Phe-NMeLeu-Nle-Dbu-NMeAla-Arg-Gly-NH2]	> 1000 nM

Results, then the binder that gave them:

EC50 (hNMUR1) buffer	Binder
> 1000 nM	EEEXXXXXXXXXXXXXXXXYFLXXARG (HELM PEPTIDE1{[O=C(O)CCCCCCCCCCCCCCCCC(=O)[*:2]].[gGlu].[gGlu].[gGlu].[Sar].[Sar].[Sar].[Sar].[Sar].[Sar].[Sar].[Sar].[Sar].[Sar].[Sar].[Sar].[Sar].[Sar].[Sar].[O=C(CN1CCN(CCN[*:1])CC1)[*:2]].Y.F.[meL].[Nle].[Orn].[meA].R.G.[am]}$$$$V2.0; SMILES CCCC[C@H](NC(=O)[C@H](CC(C)C)N(C)C(=O)[C@H](Cc1ccccc1)NC(=O)[C@H](Cc1ccc(O)cc1)NC(=O)CN1CCN(CCNC(=O)CN(C)C(=O)CN(C)C(=O)CN(C)C(=O)CN(C)C(=O)CN(C)C(=O)CN(C)C(=O)CN(C)C(=O)CN(C)C(=O)CN(C)C(=O)CN(C)C(=O)CN(C)C(=O)CN(C)C(=O)CN(C)C(=O)CN(C)C(=O)CN(C)C(=O)CC[C@H](NC(=O)CC[C@H](NC(=O)CC[C@H](NC(=O)CCCCCCCCCCCCCCCCC(=O)O)C(=O)O)C(=O)O)C(=O)O)CC1)C(=O)N[C@@H](CCCN)C(=O)N(C)[C@@H](C)C(=O)N[C@@H](CCCNC(=N)N)C(=O)NCC(N)=O) [C18DA-gGlu3-Sar15-AEPipAc-Tyr-Phe-NMeLeu-Nle-Orn-NMeAla-Arg-Gly-NH2]
> 1000 nM	EEEXXXXXXXXXXXXXXXXYFLXXPRG (HELM PEPTIDE1{[O=C(O)CCCCCCCCCCCCCCCCC(=O)[*:2]].[gGlu].[gGlu].[gGlu].[Sar].[Sar].[Sar].[Sar].[Sar].[Sar].[Sar].[Sar].[Sar].[Sar].[Sar].[Sar].[Sar].[Sar].[Sar].[O=C(CN1CCN(CCN[*:1])CC1)[*:2]].Y.F.[meL].[Nle].[Dab].P.R.G.[am]}$$$$V2.0; SMILES CCCC[C@H](NC(=O)[C@H](CC(C)C)N(C)C(=O)[C@H](Cc1ccccc1)NC(=O)[C@H](Cc1ccc(O)cc1)NC(=O)CN1CCN(CCNC(=O)CN(C)C(=O)CN(C)C(=O)CN(C)C(=O)CN(C)C(=O)CN(C)C(=O)CN(C)C(=O)CN(C)C(=O)CN(C)C(=O)CN(C)C(=O)CN(C)C(=O)CN(C)C(=O)CN(C)C(=O)CN(C)C(=O)CN(C)C(=O)CN(C)C(=O)CC[C@H](NC(=O)CC[C@H](NC(=O)CC[C@H](NC(=O)CCCCCCCCCCCCCCCCC(=O)O)C(=O)O)C(=O)O)C(=O)O)CC1)C(=O)N[C@@H](CCN)C(=O)N1CCC[C@H]1C(=O)N[C@@H](CCCNC(=N)N)C(=O)NCC(N)=O) [C18DA-gGlu3-Sar15-AEPipAc-Tyr-Phe-NMeLeu-Nle-Dbu-Pro-Arg-Gly-NH2]
> 1000 nM	EEEXXXXXXXXXXXXXXXXYFLXXPRG (HELM PEPTIDE1{[O=C(O)CCCCCCCCCCCCCCCCC(=O)[*:2]].[gGlu].[gGlu].[gGlu].[Sar].[Sar].[Sar].[Sar].[Sar].[Sar].[Sar].[Sar].[Sar].[Sar].[Sar].[Sar].[Sar].[Sar].[Sar].[O=C(CN1CCN(CCN[*:1])CC1)[*:2]].Y.F.[meL].[Nle].[Orn].P.R.G.[am]}$$$$V2.0; SMILES CCCC[C@H](NC(=O)[C@H](CC(C)C)N(C)C(=O)[C@H](Cc1ccccc1)NC(=O)[C@H](Cc1ccc(O)cc1)NC(=O)CN1CCN(CCNC(=O)CN(C)C(=O)CN(C)C(=O)CN(C)C(=O)CN(C)C(=O)CN(C)C(=O)CN(C)C(=O)CN(C)C(=O)CN(C)C(=O)CN(C)C(=O)CN(C)C(=O)CN(C)C(=O)CN(C)C(=O)CN(C)C(=O)CN(C)C(=O)CN(C)C(=O)CC[C@H](NC(=O)CC[C@H](NC(=O)CC[C@H](NC(=O)CCCCCCCCCCCCCCCCC(=O)O)C(=O)O)C(=O)O)C(=O)O)CC1)C(=O)N[C@@H](CCCN)C(=O)N1CCC[C@H]1C(=O)N[C@@H](CCCNC(=N)N)C(=O)NCC(N)=O) [C18DA-gGlu3-Sar15-AEPipAc-Tyr-Phe-NMeLeu-Nle-Orn-Pro-Arg-Gly-NH2]
